Target: Fyn (UniProt P06241)
Assay: phosphorylation enrichment, bacterial display (enrichment ratio); higher = better substrate or ligand; peptides without Tyr show the background
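Note: 11-residue human phosphosite peptides and single-mutation variants displayed on the E. coli surface, counted by deep sequencing, each peptide's frequency after selection divided by its frequency in the unselected input library; frequency after pTyr selection over input frequency; kinase dosed for 20-30% of maximal phosphorylation in three min.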

Fyn, sequence (P06241 whole entry, looked up): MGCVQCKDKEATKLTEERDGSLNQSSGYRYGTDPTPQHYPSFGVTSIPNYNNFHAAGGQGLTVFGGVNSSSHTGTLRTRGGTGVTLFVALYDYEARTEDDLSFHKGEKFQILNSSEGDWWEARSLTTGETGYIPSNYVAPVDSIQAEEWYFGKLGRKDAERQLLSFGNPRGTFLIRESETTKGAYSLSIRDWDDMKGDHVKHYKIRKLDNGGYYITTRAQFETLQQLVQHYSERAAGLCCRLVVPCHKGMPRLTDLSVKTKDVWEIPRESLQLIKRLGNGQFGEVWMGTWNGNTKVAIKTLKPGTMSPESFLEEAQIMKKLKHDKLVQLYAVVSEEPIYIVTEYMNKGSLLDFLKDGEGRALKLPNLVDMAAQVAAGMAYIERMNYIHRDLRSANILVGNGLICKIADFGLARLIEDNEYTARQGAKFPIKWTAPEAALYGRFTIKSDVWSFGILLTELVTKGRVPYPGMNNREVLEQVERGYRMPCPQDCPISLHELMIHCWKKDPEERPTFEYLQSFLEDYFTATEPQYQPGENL

Sequence | phosphorylation enrichment
VRRVGYVSGWG [HP_Y280_G276R] | 0.388
QSAGQYSSQGL [TNNI3K_Y788] | 0.459
MKTISYETLIA [DOCK10_Y1350] | 0.431
SVVVHYEPPEV [TP53_Y220_P219H] | 0.484
ERPGVYTNVVE [F11_Y608] | 0.481
ATLDVYNPFET [SCAMP3_Y41] | 2.49
HLATEYVFSDF [PANX1_Y10_Q5H] | 0.935
DTCPPYVLSQG [GJB4_Y237] | 0.663
GILDVYIFLGP [GAA_Y340] | 0.505
RRERDYTNLPS [CSF1R_Y923] | 0.651
NREGVYTDFAP [TGFBI_Y537_V539D] | 9.31
VEDPEYAVTQL [STOML2_Y124] | 0.398
GSTLSYFGLAT [P2RX7_Y343_A348T] | 0.639
QQLVAYFSKHT [SRC_Y232_A237T_YF] | 0.629
IKEFKYGIEEH [GJA1_Y137_K134E] | 0.349
GRLPEYNTRIA [CCDC151_Y542] | 0.372
KASGKYYAMKI [AKT3_Y173] | 0.359

Sequence | phosphorylation enrichment
KLNNEYLELNF [MME_Y497_YF] | 0.757
KLLRLYAVVTR [LYN_Y306_V303L] | 0.451
GDYYRSLAEVA [YWHAG_Y133_Y133S] | 0.916
SPPILYSFYLN [FCRL6_Y239_D244N] | 2.18
CLAKMYYSAVD [CP_Y539] | 0.572
SHGQDYLVGNK [GSTA1_Y147] | 0.451
ETKKQYDSFTY [TMED3_Y85] | 0.531
DWWQEYVLNES [TGM1_Y267_R264W] | 0.563
SSMIDYNLLEK [MYOC_Y479_P481L] | 0.482
NACGLYYKLHN [GATA2_Y376] | 0.504
RLLRGYDQSAY [HLA-C_Y137] | 0.465
LHAALYKRKLL [TTLL5_Y542_E543K] | 0.464
WHHTFYNEPRV [ACTA1_Y93_L96P] | 0.429
VDTRAYFTSAT [MT-CO1_Y304] | 0.39
FSSLGYPLPEG [ZSWIM4_Y87_P89L_YF] | 0.446
SEASFYKSLNL [NGEF_Y289_YF] | 0.403

Target: Fes (UniProt P07332)
Sequence (P07332 whole entry, looked up): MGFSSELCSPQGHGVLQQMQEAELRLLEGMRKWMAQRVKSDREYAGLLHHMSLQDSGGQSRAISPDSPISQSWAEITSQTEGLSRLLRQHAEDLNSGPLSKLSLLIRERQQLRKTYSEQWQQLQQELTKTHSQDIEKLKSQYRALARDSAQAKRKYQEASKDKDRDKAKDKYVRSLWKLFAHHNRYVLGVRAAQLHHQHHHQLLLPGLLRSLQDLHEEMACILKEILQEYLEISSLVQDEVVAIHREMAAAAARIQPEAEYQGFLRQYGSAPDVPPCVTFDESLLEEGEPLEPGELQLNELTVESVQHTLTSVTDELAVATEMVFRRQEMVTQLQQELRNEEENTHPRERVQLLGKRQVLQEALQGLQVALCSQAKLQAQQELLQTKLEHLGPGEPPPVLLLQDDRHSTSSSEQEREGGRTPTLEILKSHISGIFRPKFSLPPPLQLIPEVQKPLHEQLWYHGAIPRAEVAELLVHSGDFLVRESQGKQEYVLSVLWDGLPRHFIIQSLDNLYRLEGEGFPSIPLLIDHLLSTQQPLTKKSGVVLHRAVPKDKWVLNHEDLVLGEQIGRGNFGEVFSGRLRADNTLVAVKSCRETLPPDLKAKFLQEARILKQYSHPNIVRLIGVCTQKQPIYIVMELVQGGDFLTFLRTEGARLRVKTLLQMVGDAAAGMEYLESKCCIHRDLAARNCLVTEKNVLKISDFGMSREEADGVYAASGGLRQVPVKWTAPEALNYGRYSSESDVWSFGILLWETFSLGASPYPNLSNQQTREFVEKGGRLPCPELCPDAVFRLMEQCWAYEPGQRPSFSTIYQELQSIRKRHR
Assay: as above

Sequence | phosphorylation enrichment
VRRVGYVSGWG [HP_Y280_G276R] | 0.61
QSAGQYSSQGL [TNNI3K_Y788] | 1.15
MKTISYETLIA [DOCK10_Y1350] | 0.926
SVVVHYEPPEV [TP53_Y220_P219H] | 1.02
ERPGVYTNVVE [F11_Y608] | 0.62
ATLDVYNPFET [SCAMP3_Y41] | 1.42
HLATEYVFSDF [PANX1_Y10_Q5H] | 1.39
DTCPPYVLSQG [GJB4_Y237] | 1.32
GILDVYIFLGP [GAA_Y340] | 1.44
RRERDYTNLPS [CSF1R_Y923] | 0.561
NREGVYTDFAP [TGFBI_Y537_V539D] | 1.13
VEDPEYAVTQL [STOML2_Y124] | 0.997
GSTLSYFGLAT [P2RX7_Y343_A348T] | 0.912
QQLVAYFSKHT [SRC_Y232_A237T_YF] | 1.09
IKEFKYGIEEH [GJA1_Y137_K134E] | 0.918
GRLPEYNTRIA [CCDC151_Y542] | 0.589
KASGKYYAMKI [AKT3_Y173] | 0.563

Sequence | phosphorylation enrichment
KLNNEYLELNF [MME_Y497_YF] | 1.04
KLLRLYAVVTR [LYN_Y306_V303L] | 1.04
GDYYRSLAEVA [YWHAG_Y133_Y133S] | 0.75
SPPILYSFYLN [FCRL6_Y239_D244N] | 1.12
CLAKMYYSAVD [CP_Y539] | 1.18
SHGQDYLVGNK [GSTA1_Y147] | 0.74
ETKKQYDSFTY [TMED3_Y85] | 0.828
DWWQEYVLNES [TGM1_Y267_R264W] | 1.51
SSMIDYNLLEK [MYOC_Y479_P481L] | 0.954
NACGLYYKLHN [GATA2_Y376] | 1.3
RLLRGYDQSAY [HLA-C_Y137] | 0.826
LHAALYKRKLL [TTLL5_Y542_E543K] | 0.702
WHHTFYNEPRV [ACTA1_Y93_L96P] | 1.03
VDTRAYFTSAT [MT-CO1_Y304] | 0.687
FSSLGYPLPEG [ZSWIM4_Y87_P89L_YF] | 0.722
SEASFYKSLNL [NGEF_Y289_YF] | 1.27

Target: Jak2 (UniProt O60674)
Sequence (O60674 whole entry, looked up): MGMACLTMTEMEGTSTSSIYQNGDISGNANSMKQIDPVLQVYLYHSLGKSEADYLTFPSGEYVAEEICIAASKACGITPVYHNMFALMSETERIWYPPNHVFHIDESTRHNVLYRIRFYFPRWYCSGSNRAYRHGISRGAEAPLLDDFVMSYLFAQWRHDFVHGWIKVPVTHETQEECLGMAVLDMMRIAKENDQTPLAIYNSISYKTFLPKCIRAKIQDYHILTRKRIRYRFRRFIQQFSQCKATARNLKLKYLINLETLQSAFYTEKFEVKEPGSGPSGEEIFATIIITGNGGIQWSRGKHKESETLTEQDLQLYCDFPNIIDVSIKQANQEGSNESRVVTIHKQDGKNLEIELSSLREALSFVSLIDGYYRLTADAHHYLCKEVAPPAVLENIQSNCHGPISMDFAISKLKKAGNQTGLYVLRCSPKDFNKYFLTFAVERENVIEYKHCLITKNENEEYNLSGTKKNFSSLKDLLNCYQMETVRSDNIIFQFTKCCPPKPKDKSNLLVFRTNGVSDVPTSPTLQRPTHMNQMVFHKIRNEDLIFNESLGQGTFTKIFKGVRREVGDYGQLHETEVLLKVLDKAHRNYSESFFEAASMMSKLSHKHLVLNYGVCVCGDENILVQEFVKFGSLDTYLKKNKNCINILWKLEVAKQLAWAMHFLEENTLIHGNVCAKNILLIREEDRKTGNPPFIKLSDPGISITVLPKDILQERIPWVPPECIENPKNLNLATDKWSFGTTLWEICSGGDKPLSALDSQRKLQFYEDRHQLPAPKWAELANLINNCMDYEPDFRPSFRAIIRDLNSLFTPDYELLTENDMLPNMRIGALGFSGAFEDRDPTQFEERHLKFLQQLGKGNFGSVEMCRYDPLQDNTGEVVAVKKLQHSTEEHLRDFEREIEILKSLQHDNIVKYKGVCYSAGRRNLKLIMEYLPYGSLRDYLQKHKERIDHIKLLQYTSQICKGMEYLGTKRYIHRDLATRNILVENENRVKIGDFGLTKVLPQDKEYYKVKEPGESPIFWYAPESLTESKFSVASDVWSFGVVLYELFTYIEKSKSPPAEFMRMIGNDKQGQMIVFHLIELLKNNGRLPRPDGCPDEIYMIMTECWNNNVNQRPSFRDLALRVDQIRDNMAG
Assay: as above

Sequence | phosphorylation enrichment
VRRVGYVSGWG [HP_Y280_G276R] | 0.514
QSAGQYSSQGL [TNNI3K_Y788] | 0.636
MKTISYETLIA [DOCK10_Y1350] | 0.927
SVVVHYEPPEV [TP53_Y220_P219H] | 0.758
ERPGVYTNVVE [F11_Y608] | 0.519
ATLDVYNPFET [SCAMP3_Y41] | 1.37
HLATEYVFSDF [PANX1_Y10_Q5H] | 1.17
DTCPPYVLSQG [GJB4_Y237] | 1.21
GILDVYIFLGP [GAA_Y340] | 1.21
RRERDYTNLPS [CSF1R_Y923] | 0.628
NREGVYTDFAP [TGFBI_Y537_V539D] | 0.823
VEDPEYAVTQL [STOML2_Y124] | 0.893
GSTLSYFGLAT [P2RX7_Y343_A348T] | 5.4
QQLVAYFSKHT [SRC_Y232_A237T_YF] | 1.75
IKEFKYGIEEH [GJA1_Y137_K134E] | 0.581
GRLPEYNTRIA [CCDC151_Y542] | 0.55
KASGKYYAMKI [AKT3_Y173] | 0.431

Sequence | phosphorylation enrichment
KLNNEYLELNF [MME_Y497_YF] | 1.1
KLLRLYAVVTR [LYN_Y306_V303L] | 1.05
GDYYRSLAEVA [YWHAG_Y133_Y133S] | 1.45
SPPILYSFYLN [FCRL6_Y239_D244N] | 1.22
CLAKMYYSAVD [CP_Y539] | 0.956
SHGQDYLVGNK [GSTA1_Y147] | 0.606
ETKKQYDSFTY [TMED3_Y85] | 0.656
DWWQEYVLNES [TGM1_Y267_R264W] | 1.55
SSMIDYNLLEK [MYOC_Y479_P481L] | 0.968
NACGLYYKLHN [GATA2_Y376] | 2.27
RLLRGYDQSAY [HLA-C_Y137] | 0.576
LHAALYKRKLL [TTLL5_Y542_E543K] | 1.17
WHHTFYNEPRV [ACTA1_Y93_L96P] | 0.794
VDTRAYFTSAT [MT-CO1_Y304] | 0.525
FSSLGYPLPEG [ZSWIM4_Y87_P89L_YF] | 0.635
SEASFYKSLNL [NGEF_Y289_YF] | 1.1

Test system: c-Src
Assay: as above

Sequence | phosphorylation enrichment
VRRVGYVSGWG [HP_Y280_G276R] | 0.434
QSAGQYSSQGL [TNNI3K_Y788] | 0.418
MKTISYETLIA [DOCK10_Y1350] | 0.379
SVVVHYEPPEV [TP53_Y220_P219H] | 0.485
ERPGVYTNVVE [F11_Y608] | 0.442
ATLDVYNPFET [SCAMP3_Y41] | 3.24
HLATEYVFSDF [PANX1_Y10_Q5H] | 1.28
DTCPPYVLSQG [GJB4_Y237] | 0.637
GILDVYIFLGP [GAA_Y340] | 0.7
RRERDYTNLPS [CSF1R_Y923] | 0.668
NREGVYTDFAP [TGFBI_Y537_V539D] | 7.49
VEDPEYAVTQL [STOML2_Y124] | 0.549
GSTLSYFGLAT [P2RX7_Y343_A348T] | 0.595
QQLVAYFSKHT [SRC_Y232_A237T_YF] | 0.513
IKEFKYGIEEH [GJA1_Y137_K134E] | 0.365
GRLPEYNTRIA [CCDC151_Y542] | 0.408
KASGKYYAMKI [AKT3_Y173] | 0.399

Sequence | phosphorylation enrichment
KLNNEYLELNF [MME_Y497_YF] | 0.843
KLLRLYAVVTR [LYN_Y306_V303L] | 0.544
GDYYRSLAEVA [YWHAG_Y133_Y133S] | 0.664
SPPILYSFYLN [FCRL6_Y239_D244N] | 2.87
CLAKMYYSAVD [CP_Y539] | 0.722
SHGQDYLVGNK [GSTA1_Y147] | 0.417
ETKKQYDSFTY [TMED3_Y85] | 0.604
DWWQEYVLNES [TGM1_Y267_R264W] | 4.1
SSMIDYNLLEK [MYOC_Y479_P481L] | 0.409
NACGLYYKLHN [GATA2_Y376] | 1.54
RLLRGYDQSAY [HLA-C_Y137] | 0.416
LHAALYKRKLL [TTLL5_Y542_E543K] | 0.551
WHHTFYNEPRV [ACTA1_Y93_L96P] | 0.508
VDTRAYFTSAT [MT-CO1_Y304] | 0.38
FSSLGYPLPEG [ZSWIM4_Y87_P89L_YF] | 0.42
SEASFYKSLNL [NGEF_Y289_YF] | 0.505

— the supplement of paper PMC10065799, “High-throughput profiling of sequence recognition by tyrosine kinases and SH2 domains using bacterial peptide display” (eLife, 2023)
